{
  "source": "paper PMC4333395",
  "key": {"[1]": {"tested_on": "T1, hADAR2-D (human ADAR2 deaminase domain) (human), P78563-2", "T1 sequence": "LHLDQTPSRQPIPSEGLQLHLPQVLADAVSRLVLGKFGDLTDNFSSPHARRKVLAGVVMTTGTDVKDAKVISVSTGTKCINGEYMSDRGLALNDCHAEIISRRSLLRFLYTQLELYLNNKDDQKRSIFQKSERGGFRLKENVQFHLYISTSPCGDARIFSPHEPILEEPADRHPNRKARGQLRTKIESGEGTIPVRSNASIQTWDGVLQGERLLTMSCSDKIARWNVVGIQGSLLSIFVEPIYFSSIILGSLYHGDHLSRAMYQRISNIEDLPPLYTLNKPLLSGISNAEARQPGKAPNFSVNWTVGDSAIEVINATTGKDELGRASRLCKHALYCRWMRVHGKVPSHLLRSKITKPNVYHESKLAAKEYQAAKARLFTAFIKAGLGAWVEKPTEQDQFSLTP", "assay": "EMSA", "conditions": "EMSA: 20 mM Tris-HCl pH 7-7.1, 6% glycerol, 0.5 mM DTT, 60 mM KCl, 20 mM NaCl, 0.1 mM 2-mercaptoethanol, 1.5 mM EDTA, 0.003% NP-40, 160 U/ml RNasin, 100 ug/ml …"}, "[2]": {"tested_on": "T2, hADAR2-D E488Q E488Q (human), P78563-2", "T2 sequence": "T1 sequence with E190Q", "assay": "EMSA", "conditions": "N12 of top = 8-azanebularine; EMSA: 20 mM Tris-HCl pH 7-7.1, 6% glycerol, 0.5 mM DTT, 60 mM KCl, 20 mM NaCl, 0.1 mM 2-mercaptoethanol, 1.5 mM EDTA, 0.003% NP-40, 160 U/ml RNasin, 100 ug/ml …"}},
  "note": "Numbering of substitutions follows the chain as printed.",
  "data": [
    {"sequence": "CAUUANGGUGGGUGGAAUAGUAUAACA / UGUUAUAGUAUCCCACCUACCCUGAUG [(e) GluR B R/G 8-azaN]", "values": [
      {"measurement": "Kd", "setting": "[1]; N6 of top = 8-azanebularine", "result": "> 3200", "unit": "nM"}
    ]},
    {"sequence": "CCCCACAUUNGACGUUCAGUUAGUACCACCAAUGUGGGG [(c) 8-azaN]", "values": [
      {"measurement": "Kd", "setting": "[1]; N10 = 8-azanebularine", "result": 310, "unit": "nM"}
    ]},
    {"sequence": "UUCCCCACAUUNGACGUUCAGU / ACTGAACCACCAAUGUGGGGAA [(g) 8-azaN]", "values": [
      {"measurement": "Kd", "setting": "[1]; N12 of top = 8-azanebularine, bottom nt 1-7 2'-deoxy", "result": 99, "unit": "nM"}
    ]},
    {"sequence": "UUCCCCACAUUNGACGUUCAGU / ACUGAACCACCAATGUGGGGAA [(h) 8-azaN]", "values": [
      {"measurement": "Kd", "setting": "[1]; N12 of top = 8-azanebularine, bottom nt 8-15 2'-deoxy", "result": 342, "unit": "nM"}
    ]},
    {"sequence": "UUCCCCACAUUNGACGUUCAGU / ACUGAACCACCAAUGTGGGGAA [(f) 8-azaN]", "values": [
      {"measurement": "Kd", "setting": "[1]; N12 of top = 8-azanebularine, bottom nt 16-22 2'-deoxy", "result": 114, "unit": "nM"}
    ]},
    {"sequence": "UUCCCCACAUUNGACGUUCAGU / ACUGAACCACCAAUGUGGGGAA [(d) 8-azaN]", "values": [
      {"measurement": "Kd", "setting": "[1]; N12 of top = 8-azanebularine", "result": 30, "unit": "nM"}
    ]},
    {"sequence": "UUCCCCACAUUNGACGUUCAGU / ACUGAACGACCAAUGUGGGGAA [(i) 8-azaN]", "values": [
      {"measurement": "Kd", "setting": "[2]", "result": "< 5", "unit": "nM"},
      {"measurement": "Kd", "setting": "[1]; N12 of top = 8-azanebularine", "result": 15, "unit": "nM"}
    ]},
    {"sequence": "UUCCCCACAUUNGACGUUCAGU / ACUGAACGUCCAAUGUGGGGAA [(j) 8-azaN]", "values": [
      {"measurement": "Kd", "setting": "[1]; N12 of top = 8-azanebularine", "result": 10, "unit": "nM"}
    ]},
    {"sequence": "UUCCCCACAUUNGACGUUCAGUUAGUACCACCAAUGUGGGGAA [(b) 8-azaN]", "values": [
      {"measurement": "Kd", "setting": "[1]; N12 = 8-azanebularine", "result": 27, "unit": "nM"}
    ]}
  ]
}
